In US6864238 one finds distribution of tubulin in supernatant and pellet, in vitro microtubule sedimentation assay (15 µM tubulin) data, which are given here for 1 substance.

The experiment addresses Bovine brain α/β tubulin (bovine) (UniProt P81947). The experiment can be described thus: cell-based or functional assay.

Bovine brain α/β tubulin (bovine), sequence (P81947 whole entry, chain 1 of 2): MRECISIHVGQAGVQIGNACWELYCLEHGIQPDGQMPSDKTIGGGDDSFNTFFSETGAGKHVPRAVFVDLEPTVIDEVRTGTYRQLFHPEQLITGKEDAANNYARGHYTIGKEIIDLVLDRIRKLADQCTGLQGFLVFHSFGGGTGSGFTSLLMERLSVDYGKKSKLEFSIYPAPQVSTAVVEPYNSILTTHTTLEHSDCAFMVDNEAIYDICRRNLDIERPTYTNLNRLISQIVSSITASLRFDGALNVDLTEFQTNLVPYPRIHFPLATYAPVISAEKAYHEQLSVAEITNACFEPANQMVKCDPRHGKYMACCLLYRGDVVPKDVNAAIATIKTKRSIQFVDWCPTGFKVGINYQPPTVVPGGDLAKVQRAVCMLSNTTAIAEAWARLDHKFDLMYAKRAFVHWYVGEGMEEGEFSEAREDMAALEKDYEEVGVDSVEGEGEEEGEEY
Bovine brain α/β tubulin (bovine), sequence (Q6B856 whole entry, chain 2 of 2, further chain): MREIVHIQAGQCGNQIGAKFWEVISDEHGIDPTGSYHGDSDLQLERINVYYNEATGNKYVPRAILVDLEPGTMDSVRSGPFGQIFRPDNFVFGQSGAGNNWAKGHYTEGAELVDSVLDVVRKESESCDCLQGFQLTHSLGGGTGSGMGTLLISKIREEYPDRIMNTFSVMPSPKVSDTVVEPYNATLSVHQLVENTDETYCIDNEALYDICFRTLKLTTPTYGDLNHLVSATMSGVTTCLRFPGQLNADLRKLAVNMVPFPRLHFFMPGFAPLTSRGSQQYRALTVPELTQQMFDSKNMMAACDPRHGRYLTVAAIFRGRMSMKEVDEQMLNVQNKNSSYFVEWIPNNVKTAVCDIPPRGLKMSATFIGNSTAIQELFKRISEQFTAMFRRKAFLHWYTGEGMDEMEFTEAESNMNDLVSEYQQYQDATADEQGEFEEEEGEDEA

As for GST-PN2-2 (from UniProt Q9HC77 191-310), the distribution of tubulin in supernatant and pellet, in vitro microtubule sedimentation assay (15 µM tubulin) came to 40 µM.
